In publication PMC4841768:

Legend:
[1] = immunofluorescence, mESCs; details: glycan lost; control: fSOX2-Tg mESCs
[2] = FLAG immunofluorescence, MEFs day 6; details: glycan lost; control: OSFLAG-WTKM
[3] = Western blot and immunostaining, transduced MEFs; details: glycan lost; control: OSFLAG-WTKM
Western blot, mESCs = details: glycan lost; control: fSOX2-Tg mESCs
[4] = label-free LC-MS of TAD peptide; details: glycan lost; control: fSOX2-Tg mESCs

Sequence of SOX2: S248A (chain, as listed by the source S248A): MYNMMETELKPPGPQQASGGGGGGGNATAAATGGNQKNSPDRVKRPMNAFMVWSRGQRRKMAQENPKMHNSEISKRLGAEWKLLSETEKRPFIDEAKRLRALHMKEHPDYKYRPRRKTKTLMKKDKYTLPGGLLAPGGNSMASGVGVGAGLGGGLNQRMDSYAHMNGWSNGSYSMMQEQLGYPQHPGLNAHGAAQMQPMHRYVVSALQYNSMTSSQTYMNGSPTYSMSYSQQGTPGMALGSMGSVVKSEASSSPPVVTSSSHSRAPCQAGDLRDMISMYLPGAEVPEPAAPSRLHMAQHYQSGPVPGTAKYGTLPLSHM

In the case of SOX2: S248A, the localisation_or_trafficking [1] is reported as “no change”, the localisation_or_trafficking [2] is reported as “no change” and the expression_or_secretion [3] is reported as “no change”. The expression_or_secretion (Western blot, mESCs) was “no change” and the “other: phosphorylation at S253, other: % of total TAD peptide” value [4] was “increases, 18.7 vs 10.9”.
